Target: HLA A2.1 molecule (human)
Assay: T2 cells, flow cytometry; P1Y variant against its natural peptide

P1Y variant of gp100 209 (peptide) was tested, and the DC50 Y1-DC50 WT was 2 h and the RA WT/RA Y1 was 1.7.
